This note sets out measurements from the nanobody polyreactivity screen of Harvey et al. (2022).

A short description of this series: yeast display, Sf9 membrane polyspecificity reagent, FACS + sequencing; frameworks hold sequencing errors. A digest of the protocol:
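Nanobodies came from a synthetic yeast display library in Saccharomyces cerevisiae BJ5465, induced with galactose for 36–48 hours and stained for 1 hour at 4 °C with 10% biotinylated, detergent-solubilized Sf9 membrane reagent. Cells were enriched on streptavidin microbeads and then FACS-sorted, with low and high (top ~1%) gates set on anti-HA fluorescence for expression and streptavidin fluorescence for reagent binding. Each polyreactivity label reflects the gate a clone came from. Genes were amplified by colony PCR, sequenced by MiSeq 2 × 250 and filtered by CDR length.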
In the case of “QVQLVESGGGLVQAGGSLRLSCAASGSTFRVNAMGWYRQAPGKERELVAAISFSAGGTYYADSVKGRFTISRDNAKNTVYLQMNSLKPADTAVYYCNARYGGWVWSTYDHWGQGTQVTVSS”, the “polyreactivity (PSR sort gate)” value was “low polyreactivity”.

In the case of “QVQLVESGGGLVQAGGSLRLSCAASGSTFRVNAMGWYRQAPGKERELVAVITSGGSTYADSVKGRFTISRDNAKNTVYLQMNSLKPEDTAVYYCAAESRWSWVHWSAYTYDYWGQGTQVTVSS”, the “polyreactivity (PSR sort gate)” value is listed as “low polyreactivity”.

As to “QVQLVESGGGLVQAGGSLRLSCAASGSTFRVYAMGWYRQAPGKERELVAAISWSGGRTYYADSVKGRFTISGDNAKNTVYLQMNSLKTEDTAVYYCAADTYGRYDYWGQGTQVTVSS”, the “polyreactivity (PSR sort gate)” value is on record as “high polyreactivity”.

Turning to “QVQLVESGGGLVQAGGSLRLSCAASGSTFRWNAMGWYRQAPGKERELVAAISNGGSTNYADSVKGRFTISRDNAKNSVYFQMNSLKPEDTAVYYCATDGWYGQHYYDYDFDYYYWGQGTQVTVSS”, the “polyreactivity (PSR sort gate)” value is on record as “low polyreactivity”.

Regarding “QVQLVESGGGLVQAGGSLRLSCAASGSTFRWNAMGWYRQAPGKERELVAAISSGGRTYYADSVKGRFTISRDNAKNTVYLQMNSLKPEDTAVYYCSARTSRYYYYPYAFYWGQGTQVSVSS”, the “polyreactivity (PSR sort gate)” value is on record as “high polyreactivity”.

In the case of “QVQLVESGGGLVQAGGSLRLSCAASGSTFRWYAMGWSRQAPGKERELVAAIRRIGSRTYADSVKGRFTISRDNAKNTVYLQMNSLKPEDTAVYYCATRYKYTGYDYWGQGTQVTVSS”, the “polyreactivity (PSR sort gate)” value is “high polyreactivity”.

For “QVQLVESGGGLVQAGGSLRLSCAASGSTFRWYAMGWYRQAPGKERELVASITRGGGSTYYADSVKGRFTISRDNAKNTVYLQMNSLKPEDTAVYYCAKRSLWSYYEGYYYWGQGTQVTVSS”, the “polyreactivity (PSR sort gate)” value was “high polyreactivity”.

As for “QVQLVESGGGLVQAGGSLRLSCAASGSTFRYNAMGWYRQAPGKERELVAAISKGGGRTYYADSVKGRFTISRDNAKNTVYLQMNSLKPEDTAVYYCAATYGTGRRSKYGYWGQGTQVTVSS”, the “polyreactivity (PSR sort gate)” value was “high polyreactivity”.

On to “QVQLVESGGGLVQAGGSLRLSCAASGSTFRYNAMGWYRQAPGKERELVAAISSGSSTNYADSVKGRFSISRDNAKNTVYLQMNSLKPEDTAVYYCAAQPGYYDDFYYWGQGTQVTVSS”, for which the “polyreactivity (PSR sort gate)” value is reported as “low polyreactivity”.

On to “QVQLVESGGGLVQAGGSLRLSCAASGSTFRYNAMGWYRQAPGKERELVAAISSSGGSTRYADSVKGRFTISRDNANNTVYLQMNSLKPEDTAVYYCAVRFYDWRYYYWGQGTQVTVSS”, for which the “polyreactivity (PSR sort gate)” value is reported as “high polyreactivity”.

Consider “QVQLVESGGGLVQAGGSLRLSCAASGSTFRYNAMGWYRQAPGKERELVATITSGGYTNYADSVKGRFTISRDNAKNSVYLQMNSLKPVDSAVYYCATDSLFRTYVEWDRKFDYWGQGTQVTVSS”, for which the “polyreactivity (PSR sort gate)” value is listed as “high polyreactivity”.

For “QVQLVESGGGLVQAGGSLRLSCAASGSTFRYNAMGWYRQAPGKEREMVATITWSGGSTYYADSVKGRFTISRDNAKNTVYLQMNSLKPEDTAVYYCAKLPFPVYYGGSYKYYYWGLGTQVTVSS”, the “polyreactivity (PSR sort gate)” value is given as “high polyreactivity”.

Take “QVQLVESGGGLVQAGGSLRLSCAASGSTFRYNAMGWYRQAPGTERELVAAINWSGSSTYYADSVKGRFTISRDNAKKTVYLQMNSLKPEDTAVYYCAAERPWYTKWGEYWGQGTQVTVSS”: the “polyreactivity (PSR sort gate)” value is “high polyreactivity”.

For the sequence “QVQLVESGGGLVQAGGSLRLSCAASGSTFRYYAMGWYRQAPGKERDLVAAINRSGGSTYYADSVKGRFTISRDIAKNTVYLQMNSLKPEDTAVYYCGAPWGRHYTNPDDYWGQGTQVTVSS”, the “polyreactivity (PSR sort gate)” value is on record as “high polyreactivity”.

“QVQLVESGGGLVQAGGSLRLSCAASGSTFRYYAMGWYRQAPGKERELVAAINYSGGRTYYADSVKGRFTISRDNAKNTVYLQMNCVKPEDSAVYYCAADWSYLAVTDSTSDYDPNYGYWGQGTQVNVSS”: the “polyreactivity (PSR sort gate)” value is “high polyreactivity”.

On to “QVQLVESGGGLVQAGGSLRLSCAASGSTFRYYAMGWYRQAPGKERELVAAISSAGTTYYADSVKGRFTISRDNAKNTVYLQMNSLKPEDTAVYYCTARFVYHSSFAGFDYWGQGTQVTVSS”, for which the “polyreactivity (PSR sort gate)” value was “low polyreactivity”.

As for “QVQLVESGGGLVQAGGSLRLSCAASGSTFRYYAMGWYRQAPGKERELVAAISYRGVRTNYADSVKGRFTISRDHAKNTVYLQMNSLKPEDTAVYYCADRFGRSSSGSPYDRYGYWGQGTQVTVSS”, the “polyreactivity (PSR sort gate)” value is reported as “high polyreactivity”.

As for “QVQLVESGGGLVQAGGSLRLSCAASGSTFRYYAMGWYRQAPGKERELVAAITRSGSTYYADSVKGRFTISRDNAKNTVYLQMNSLKREDTAVYYCNADQYYGGRYVYLRHYNYWGQGTQVTVSS”, the “polyreactivity (PSR sort gate)” value is “high polyreactivity”.

Regarding “QVQLVESGGGLVQAGGSLRLSCAASGSTFRYYAMGWYRQAPGKERELVAGITSAGNTYYADSVKGRFTISRDNAKNTVYLQMNSLKPEDTAVYYCAARRWKGYYYWGQGTQVTVSS”, the “polyreactivity (PSR sort gate)” value is listed as “high polyreactivity”.

On to “QVQLVESGGGLVQAGGSLRLSCAASGSTFRYYAMGWYRQAPGKERELVAVISTSGNTYYADSVKGRFSISRDNAKITVYVQMNSLQPEETAVYYCAARGVGGQISQEYDYWGQGTQVTVSS”, for which the “polyreactivity (PSR sort gate)” value is reported as “low polyreactivity”.

Regarding “QVQLVESGGGLVQAGGSLRLSCAASGSTFRYYDMGWYRQAPGKERELVAVISKSGARTYYADSVKGRFTISRDNAKNTVYLQMNSLKPEDTAVYYCIAVFKLDSQYAMGYWGQGTQLTVSS”, the “polyreactivity (PSR sort gate)” value was “high polyreactivity”.

As for “QVQLVESGGGLVQAGGSLRLSCAASGSTFRYYSMGWYRQAPGKERELVASISSGGSTNYADSVKGRFTISRDNAKNTVYLQMNSLKPGDTAVYYCNADSWTVNRRYYYYRYEYWGQGTQVTVSS”, the “polyreactivity (PSR sort gate)” value is given as “low polyreactivity”.

As for “QVQLVESGGGLVQAGGSLRLSCAASGSTFRYYVMGWYRQAPGKERELVAAISSSGGSTYYADSVKGRFTISRDNAKNTVYLQMNSLKPEDTAVYYCARDKGYVSYRYNYWGQGTQVTVSS”, the “polyreactivity (PSR sort gate)” value is “high polyreactivity”.

On to “QVQLVESGGGLVQAGGSLRLSCAASGSTFRYYVMGWYRQEPGKEREFVAAISAGGGRTYYADSVKGRFTISRDNSKNTVYLQMNSLKPEDTAVYYCAATKGNILRRSRYDYWGQGTQVTVSS”, for which the “polyreactivity (PSR sort gate)” value is “high polyreactivity”.

Regarding “QVQLVESGGGLVQAGGSLRLSCAASGSTFSAYTMGWYRQAPGKERELVARITNGGSTYYADSVKGRFTISRDNAKNTVYLQMNSLKPEDTAVYYCAAQLGWWGSGYWGQGTQVTVSS”, the “polyreactivity (PSR sort gate)” value is listed as “high polyreactivity”.

“QVQLVESGGGLVQAGGSLRLSCAASGSTFSAYTMGWYRQAPGKERELVARITNGGSTYYADSVKGRFTISRDNAKNTVYLQMNSLKPEDTAVYYCNVQYYVSYWRSYDYWGQGTQVTVSS”: the “polyreactivity (PSR sort gate)” value is “high polyreactivity”.

For the sequence “QVQLVESGGGLVQAGGSLRLSCAASGSTFSCYAMGWYRQAPGKERELVAAISSSGGTSTYADSVKARFTISRDNAKKTVYLQMNSLKPEDTAVYYCAARQYRRLRDYRHDYWGQGTQVTVSS”, the “polyreactivity (PSR sort gate)” value is “high polyreactivity”.

Consider “QVQLVESGGGLVQAGGSLRLSCAASGSTFSDNAMGWYRQAPGKDRELVAAINYSDGSTNYADSVKGRFTISRDNAKNTVYLQMNSLKPEDTAVYYCAVDIYFWCYGWWGPYDYWGQGTQVTVSS”, for which the “polyreactivity (PSR sort gate)” value was “low polyreactivity”.

In the case of “QVQLVESGGGLVQAGGSLRLSCAASGSTFSDNAMGWYRQAPGKERELVAAISVTGGRTYYADSVKGRFTISRDNAKNTVYLQMNSLKPEDTAVYYCAKVTILDPYSYDYWGQGTQVTVSS”, the “polyreactivity (PSR sort gate)” value is “low polyreactivity”.

As for “QVQLVESGGGLVQAGGSLRLSCAASGSTFSDNVMGWYRQAPGKERELVAGITRSGGRTYYADSVKGRFTISRDNAKNTVDLQMNSLKPEDTEVYYCAARRSGSKSGLFDYWGQGTQVTVSS”, the “polyreactivity (PSR sort gate)” value is recorded as “low polyreactivity”.

As to “QVQLVESGGGLVQAGGSLRLSCAASGSTFSDYAMGWYRQAPGKERELVAGITETGTTTYYADSVKGRFTISRDNAKNTVYLQMNSLKPEDTAVYYCAAYVVTYYYGTGYYSYDYWGQGTQVNVSS”, the “polyreactivity (PSR sort gate)” value is “low polyreactivity”.

Take “QVQLVESGGGLVQAGGSLRLSCAASGSTFSEYAMGCYRQAPGKERELVAAITWDGGSTYYPDSVKGRFTISRDNAKNTVYLQMNSLKPEDTAVYYCATDGWSYSYGYWGQGTQVTVSS”: the “polyreactivity (PSR sort gate)” value was “low polyreactivity”.

Regarding “QVQLVESGGGLVQAGGSLRLSCAASGSTFSFNAMGWYRQAPGKERELVAAISRSGGRTYYADSVKGRFTISRDNAKNTVYLQMNSLKPEDTAVYYCNKVWFQRSVQPVEYDYWGQGTQVTVSS”, the “polyreactivity (PSR sort gate)” value is “high polyreactivity”.

Regarding “QVQLVESGGGLVQAGGSLRLSCAASGSTFSFNAMGWYRQAPGKERELVAAISYSDSTTYYADSVKGRFTISRDNAKNTVYLQMNSLKPEDTAVYYCAAETGPYYRFGGDYWGQGTQVTVSS”, the “polyreactivity (PSR sort gate)” value is recorded as “high polyreactivity”.

Regarding “QVQLVESGGGLVQAGGSLRLSCAASGSTFSGNALGWYRQPPGKERELVAAITSSGGSTDYADSVKGRFTISRDNAKNSVYLQMNSLKPEDTAVYYCNTVFHYFNSGAYNFGYWGQGTQVTVSS”, the “polyreactivity (PSR sort gate)” value was “high polyreactivity”.

For “QVQLVESGGGLVQAGGSLRLSCAASGSTFSGNAMGWYRQAPGKERELVAAITRSGSRTYYADSVKGRFTISRDNAKNTVYLQMNSLKPEDTAVYYCAKVGRTGDDYYYWGQGTQVTVAS”, the “polyreactivity (PSR sort gate)” value was “high polyreactivity”.

Take “QVQLVESGGGLVQAGGSLRLSCAASGSTFSGYAMGWYRQAPGKERELVAAINWNGGRTYYADSVKGRFTISRDNAKNTVYLQMYSLKPADTAVSYCNKQSPRGRSAVYKYDYWGQGTQVTVSS”: the “polyreactivity (PSR sort gate)” value was “high polyreactivity”.

Regarding “QVQLVESGGGLVQAGGSLRLSCAASGSTFSGYDMGWYRQAPGKERELVAAISKSGGRTYYADSVKGRFTISRDNAKNTVYLQMKSLKPEDTAVYYCNTDSPYDTYYFLWWREDYYWGQGTQVTVSS”, the “polyreactivity (PSR sort gate)” value is “low polyreactivity”.

Take “QVQLVESGGGLVQAGGSLRLSCAASGSTFSGYMGWYRQAPGKERELVAAITSSGGSTYYADSVKGRFTISRDNAKNTVYLQMYSLKPEDTAVYYCAADGGYRGEDYWGQGTQVTVSS”: the “polyreactivity (PSR sort gate)” value is given as “high polyreactivity”.

Take “QVQLVESGGGLVQAGGSLRLSCAASGSTFSHNAMGWYRQAPGKERELVAAISWSGVGTYADSVKGRFTISRDNAKNTVYLQMNSLKPEDTAVYYCNKVSYPSTSSSWFDYWGQGTQVTVSS”: the “polyreactivity (PSR sort gate)” value is given as “low polyreactivity”.
